This is an account of results in EP1759709B1 (Elan Pharmaceuticals Inc., dated 2013).

Substitutions are numbered along the chain they refer to.

This test has as its target T1, human α4β1 integrin (human, UniProt P13612 34-1032; P05556 21-798).
T1 construct: whole, on cells; also called VLA-4; alpha-4-beta-1 integrin
Kind of test: ELISA on L cells expressing α4β1 integrin; crude supernatants. For orientation: An ELISA detects its analyte on a solid surface through an enzyme-linked reagent.

B1: reshaped human 21.6 antibody (La + Ha) (antibody, V domains shown)
VH: QVQLVQSGAEVKKPGASVKVSCKASGFNIKDTYIHWVRQAPGQRLEWMGRIDPANGYTKYDPKFQGRVTITADTSASTAYMELSSLRSEDTAVYYCAREGYYGNYGVYAMDYWGQGTLVTVSS
VL: DIQMTQSPSSLSASVGDRVTITCKTSQDINKYMAWYQQTPGKAPRLLIHYTSALQPGIPSRFSGSGSGRDYTFTISSLQPEDIATYYCLQYDNLWTFGQGTKVEIK
notes: Expressed in Cos cells
In the case of B1, the binding result is “binds”.

B2: reshaped human 21.6 antibody (Lb + Ha) (antibody, V domains shown)
VH: B1 VH
VL: B1 VL with H49Y
notes: Human kappa / human gamma-1 constant regions; tested as crude Cos supernatant; Lb is therefore built here from La with the stated change; also called version Lb in combination with version Ha
Consider B2, for which the binding result was “binds”.
